# Data from US20230313187A1, “MODIFICATIONS OF MAMMALIAN CELLS USING ARTIFICIAL MICRO-RNA TO ALTER THEIR PROPERTIES AND THE COMPOSITIONS OF THEIR PRODUCTS” (DNA TWOPOINTO INC., priority 2020, published 2023).
# B1: SEQ ID NO: 599: four-hairpin amiRNA, guides SEQ ID NOs 103, 104, 102, 105 to Cricetulus griseus interferon receptor subunit 2 mRNA (nucleic acid)
# chain: ATCTGATCTTCTGAAGAAAATATATTTCTTTTTATTCATAGCTCTTAACTAGTGGTGATAGCAATGTCAGCAGTGCCTAAGACTATCAGCAAGAACCAGGGTGAAGCCACAGATGCCTGGTTCTTACTGATAGTCTCAAGTAAGGTTGACCATACTCTACTCTAGTTATATTCTTTAGGCACGAATGTGTGTTTAAAAAAAATAAAAACTAGTGGTGATAGCAATGTCAGCAGTGCCTTTGAAGATAACTTTGTCCCCGGGTGAAGCCACAGATGCCGGGGACAACGTTATCTTCACAAGTAAGGTTGACCATACTCTACTCTAGAGTTGTGTTTTAATGTATATTAATGTTACTAATGTGTTTACTAGTGGTGATAGCAATGTCAGCAGTGCCTTAAACAACAATGGATCCCCAAAGTGAAGCCACAGATGTTTGGGGATCAATTGTTGTTTCAAGTAAGGTTGACCATACTCTACTCTAGGTTATTTTTAGTATGATTCTGTAAAAATGAATTAATACTAACTAGTGGTGATAGCAATGTCAGCAGTGCCTTTGCTCATGATTGTGAACCAAAGTGAAGCCACAGATGTTTGGTTCACCATCATGAGCACAAGTAAGGTTGACCATACTCTACTCTAGTCAGTTTTATTGATAGTCTTTTCAGTATTATTGATAATCTT
# B2: SEQ ID NO: 598: four-hairpin amiRNA, guides SEQ ID NOs 95, 97, 96, 98 to Cricetulus griseus interferon receptor subunit 1 mRNA (nucleic acid)
# chain: ATCTGATCTTCTGAAGAAAATATATTTCTTTTTATTCATAGCTCTTAACTAGTGGTGATAGCAATGTCAGCAGTGCCTTAAAATAACACACAAGAGCCATGTGAAGCCACAGATGATGGCTCTTGCGTGTTATTTTCAAGTAAGGTTGACCATACTCTACTCTAGTTATATTCTTTAGGCACGAATGTGTGTTTAAAAAAAATAAAAACTAGTGGTGATAGCAATGTCAGCAGTGCCTTTAAACAGTAAGTAGTCTCTGGGTGAAGCCACAGATGCCAGAGACTAATTACTGTTTACAAGTAAGGTTGACCATACTCTACTCTAGAGTTGTGTTTTAATGTATATTAATGTTACTAATGTGTTTACTAGTGGTGATAGCAATGTCAGCAGTGCCTTTGGGTGTTAATAAAAAGGCAGGTGAAGCCACAGATGCTGCCTTTTTCTTAACACCCACAAGTAAGGTTGACCATACTCTACTCTAGGTTATTTTTAGTATGATTCTGTAAAAATGAATTAATACTAACTAGTGGTGATAGCAATGTCAGCAGTGCCTTTCATTTTGACATACATACTTGGTGAAGCCACAGATGCAAGTATGTACGTCAAAATGACAAGTAAGGTTGACCATACTCTACTCTAGTCAGTTTTATTGATAGTCTTTTCAGTATTATTGATAATCTT
# Tests used:
# [1] = system: Cricetulus griseus interferon receptor subunit 2 mRNA; experiment: Expression of human interferon beta from CHO cells (ELISA), amiRNA to interferon receptor subunit 2; assay type: cell-based; details: for Titer: 10-day fed batch
# Excerpt: One multi-hairpin amiRNA, with nucleotide sequence SEQ ID NO: 599, comprised four hairpins; the first hairpin comprised a guide strand with nucleotide sequence SEQ ID NO: 103, immediately followed by a loop with nucleotide sequence SEQ ID NO: 241 and passenger strand with nucleotide sequence SEQ ID NO: 188; the second hairpin comprised a guide strand with nucleotide sequence SEQ ID NO: 104, immediately followed by a loop with nucleotide sequence SEQ ID NO: 241 and passenger strand with nucleotide sequence SEQ ID NO: 189; the third hairpin comprised a guide strand with nucleotide sequence SEQ ID NO: 102, immediately followed by a loop with nucleotide sequence SEQ ID NO: 241 and a passenger strand with nucleotide sequence SEQ ID NO: 187; the fourth hairpin comprised a guide strand with nucleotide sequence SEQ ID NO: 105, immediately followed by a loop with nucleotide sequence SEQ ID NO: 241 and a passenger strand with nucleotide sequence SEQ ID NO: 190. Each of these four guide strand sequences was a 22 base sequence that was an exact reverse complement of a different region within the Cricetulus griseus interferon receptor subunit 2 mRNA (with nucleotide sequence SEQ ID NO: 20). Each passenger strand sequence was complementary to its corresponding guide strand sequence, except that the bases in the passenger strand sequences corresponding to the 5′ base of the guide strand and the twelfth base of the guide strand were changed to be non-complementary.
# (§1) Each of the five polynucleotides was a transposon which further comprised a left end comprising a 5′-TTAA-3′ target sequence immediately followed by an ITR with SEQ ID NO: 423 (which is an embodiment of SEQ ID NO: 421) and additional sequence with SEQ ID NO: 417 and a right end comprising SEQ ID NO: 419 immediately followed by an ITR with SEQ ID NO: 424 (which is an embodiment of SEQ ID NO: 422) immediately followed by a 5′-TTAA-3′ target sequence. Each transposon further comprised a gene encoding a glutamine synthetase selectable marker. […] Each transposon further comprised the same promoter operably linked to an open reading frame encoding human interferon beta. […]
# (§2) Transposons were co-transfected with mRNA encoding transposase with polypeptide sequence SEQ ID NO: 502 into a CHO host lacking a functional glutamine synthetase gene. […] Interferon beta levels in the culture supernatant were measured using an ELISA assay.
# (§3) Table 11. […] Transposons for the expression of human interferon beta were constructed, transfected and expressed as described in Section 6.4.1. The amiRNA SEQ ID NO is shown in column A. Following a 10-day fed batch of duplicate cultures for each sample, the concentration of interferon was measured by ELISA. Measured interferon concentrations in culture supernatants are show in columns B and C. […]
# [2] = system: Cricetulus griseus interferon receptor subunit 1 mRNA; experiment: Expression of human interferon beta from CHO cells (ELISA), amiRNA to interferon receptor subunit 1; assay type: cell-based; details: for Titer: 10-day fed batch
# Excerpt: One multi-hairpin amiRNA, with nucleotide sequence SEQ ID NO: 598, comprised four hairpins; the first hairpin comprised a guide strand with nucleotide sequence SEQ ID NO: 95, immediately followed by a loop with nucleotide sequence SEQ ID NO: 241 and passenger strand with nucleotide sequence SEQ ID NO: 180, the second hairpin comprised a guide strand with nucleotide sequence SEQ ID NO: 97, immediately followed by a loop with nucleotide sequence SEQ ID NO: 241 and passenger strand with nucleotide sequence SEQ ID NO: 182, the third hairpin comprised a guide strand with nucleotide sequence SEQ ID NO: 96, immediately followed by a loop with nucleotide sequence SEQ ID NO: 241 and a passenger strand with nucleotide sequence SEQ ID NO: 181, the fourth hairpin comprised a guide strand with nucleotide sequence SEQ ID NO: 98, immediately followed by a loop with nucleotide sequence SEQ ID NO: 241 and a passenger strand with nucleotide sequence SEQ ID NO: 183. Each of these four guide strand sequences was a 22 base sequence that was an exact reverse complement of a different region within the Cricetulus griseus interferon receptor subunit 1 mRNA (with nucleotide sequence SEQ ID NO: 19. Each passenger strand sequence was complementary to its corresponding guide strand sequence, except that the bases in the passenger strand sequences corresponding to the 5′ base of the guide strand and the twelfth base of the guide strand were changed to be non-complementary.
# as §1, §2, §3
# [3] = control transposon expressed 48 μg/ml
# [4] = interferon beta in supernatant, first of duplicate cultures
# [5] = interferon beta, second of duplicate cultures
Molecule,Average Titer ([1]; average of duplicate cultures) [µg/mL],"interferon beta expression compared with the control transposon [1, 3]","Titer [1, 4] [µg/mL]","Titer [1, 5] [µg/mL]",Average Titer ([2]; average of duplicate cultures) [µg/mL],"interferon beta expression compared with the control transposon [2, 3]","Titer [2, 4] [µg/mL]","Titer [2, 5] [µg/mL]"
B1,99.3,as much as twice the expression levels of interferon beta as the control transposon,92.9,105.7,,,,
B2,,,,,34.5,a small decrease in interferon beta expression,22.8,46.1
